Reference: the supplement of paper PMC10065799, “High-throughput profiling of sequence recognition by tyrosine kinases and SH2 domains using bacterial peptide display” (eLife, 2023)

These sequences were tested against Hck (UniProt P08631) (assay: phosphorylation enrichment, bacterial display (enrichment ratio); higher = better substrate or ligand; peptides without Tyr show the background).
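Also: 11-residue human phosphosite peptides and single-mutation variants displayed on the E. coli surface, counted by deep sequencing, each peptide's frequency after selection divided by its frequency in the unselected input library; frequency after pTyr selection over input frequency; kinase dosed for 20-30% of maximal phosphorylation in three min.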

Sequence of Hck (P08631 whole entry, looked up): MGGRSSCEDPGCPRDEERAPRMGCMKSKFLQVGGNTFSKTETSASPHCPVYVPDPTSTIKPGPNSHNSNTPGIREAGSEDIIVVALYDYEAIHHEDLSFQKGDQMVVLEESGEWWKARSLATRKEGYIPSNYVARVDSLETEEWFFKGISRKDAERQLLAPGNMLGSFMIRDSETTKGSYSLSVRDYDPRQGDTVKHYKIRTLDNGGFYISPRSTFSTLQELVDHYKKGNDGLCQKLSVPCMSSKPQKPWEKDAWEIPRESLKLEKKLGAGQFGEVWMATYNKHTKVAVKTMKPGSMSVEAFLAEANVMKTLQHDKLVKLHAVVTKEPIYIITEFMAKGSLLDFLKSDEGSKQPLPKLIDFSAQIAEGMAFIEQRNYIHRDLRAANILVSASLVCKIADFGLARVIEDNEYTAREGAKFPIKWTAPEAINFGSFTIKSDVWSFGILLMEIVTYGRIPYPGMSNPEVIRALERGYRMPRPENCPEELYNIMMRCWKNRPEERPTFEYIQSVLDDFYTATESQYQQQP

| Sequence | phosphorylation enrichment |
| --- | --- |
| MEKEKYVSFIS [JMJD1C_Y596_YF] | 0.497 |
| ARSHIYTLASC [MEFV_Y741_F743L] | 0.95 |
| VFFGSYSCPFG [NKAP_Y104_R106C_YF] | 0.518 |
| LYEDRYLLGTS [ASS1_Y87] | 3.73 |
| FMCKVYSDRQP [FGFR1_Y280_P283R] | 0.582 |
| ELTTCYRKKCS [CCBE1_Y70_C75S] | 0.458 |
| GYEEAYSVSKK [PAFAH1B1_Y28_F31S] | 0.447 |
| SSQHRYSTPHT [RAF1_Y232_A237T] | 0.312 |
| VIKSSYQVAKA [CPT1B_Y534_E531K] | 0.391 |
| KDGNGYISVAE [CALM3_Y100_A103V] | 0.462 |
| GKANRYFSPNF [PTEN_Y336_D331G] | 0.398 |
| KGYCGYSYDDI [TMEM230_Y110_R108C] | 0.563 |
| SQSKGYRPKLY [SIPA1L3_Y1376_G1371S] | 0.361 |
| SVVVPYDPPEV [TP53_Y220_E221D] | 0.488 |
| FPKAHYHWLVL [APTX_Y214_R213H_YF] | 0.444 |
| TPGPNYCPGFN [USH2A_Y463_R464C_YF] | 0.333 |
| SGKSEYLLPVA [MYLK_Y611_R607G] | 0.362 |

| Sequence | phosphorylation enrichment |
| --- | --- |
| YHRQLYHKCTH [F12_Y58] | 0.53 |
| RRAKGYPINLY [ITGB2_Y125_D128N] | 0.912 |
| ILGRTHYVNHE [NEDD4_Y627_Y627H] | 0.318 |
| KMKGEYFRFLA [YWHAG_Y130_D129E_YF] | 0.783 |
| KNEVFYQCPDQ [FBXO3_Y223] | 1.69 |
| PFVFFYSFLLK [PTEN_Y178_R173P_YF] | 0.983 |
| IPPRRYFRSGV [STAMBP_Y36] | 0.573 |
| PLQSEYSSITT [ITGB4_Y1760] | 1.92 |
| PVQAAYQKVVA [HBB_Y131] | 0.505 |
| QEKKGYFEDRC [GLUL_Y336_R341C] | 0.655 |
| GGEAIYAAPFA [Abl_opt_1995] | 12.7 |
| LNCDRYSAGLL [PDE6A_Y275_V277A] | 0.39 |
| EEQKKYYNATK [SCN5A_Y1494_M1498T] | 0.478 |
| PEFINYHQHNS [BTK_Y361_L358F] | 0.485 |
| PLSGEYFTLQI [TP53_Y327_D324S] | 1.89 |
| HSGVSYFINLC [IGF2R_Y2024_N2020S_YF] | 0.482 |

The sequences below were run against Jak2 (UniProt O60674) in the same assay as above.
Sequence of Jak2 (O60674 whole entry, looked up): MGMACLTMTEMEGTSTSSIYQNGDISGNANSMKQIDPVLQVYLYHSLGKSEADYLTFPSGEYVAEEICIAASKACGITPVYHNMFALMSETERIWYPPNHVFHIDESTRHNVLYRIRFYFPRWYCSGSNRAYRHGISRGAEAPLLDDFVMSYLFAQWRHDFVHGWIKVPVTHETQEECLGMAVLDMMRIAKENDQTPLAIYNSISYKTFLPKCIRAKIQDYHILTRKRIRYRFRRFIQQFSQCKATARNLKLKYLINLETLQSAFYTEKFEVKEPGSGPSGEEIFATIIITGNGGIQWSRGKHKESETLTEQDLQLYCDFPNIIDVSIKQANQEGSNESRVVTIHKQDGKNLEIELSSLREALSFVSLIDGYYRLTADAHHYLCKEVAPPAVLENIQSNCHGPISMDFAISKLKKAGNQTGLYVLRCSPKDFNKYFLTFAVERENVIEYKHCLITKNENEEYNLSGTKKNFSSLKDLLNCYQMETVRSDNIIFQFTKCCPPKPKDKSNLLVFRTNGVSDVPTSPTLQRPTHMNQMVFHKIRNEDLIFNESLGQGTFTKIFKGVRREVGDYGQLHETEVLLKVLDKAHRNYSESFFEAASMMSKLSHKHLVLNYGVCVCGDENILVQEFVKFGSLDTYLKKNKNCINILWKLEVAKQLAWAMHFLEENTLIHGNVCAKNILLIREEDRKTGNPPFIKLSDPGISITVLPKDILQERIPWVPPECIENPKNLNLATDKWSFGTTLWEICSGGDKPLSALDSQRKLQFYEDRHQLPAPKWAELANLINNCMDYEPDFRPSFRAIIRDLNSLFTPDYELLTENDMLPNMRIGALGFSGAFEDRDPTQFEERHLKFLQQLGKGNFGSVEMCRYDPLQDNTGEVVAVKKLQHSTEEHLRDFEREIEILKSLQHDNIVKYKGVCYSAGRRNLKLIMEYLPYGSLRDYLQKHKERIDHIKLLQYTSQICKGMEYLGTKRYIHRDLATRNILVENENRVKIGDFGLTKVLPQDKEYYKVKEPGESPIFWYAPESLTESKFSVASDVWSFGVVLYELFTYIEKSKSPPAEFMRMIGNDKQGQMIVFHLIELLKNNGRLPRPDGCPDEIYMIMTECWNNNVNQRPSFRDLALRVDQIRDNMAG

| Sequence | phosphorylation enrichment |
| --- | --- |
| MEKEKYVSFIS [JMJD1C_Y596_YF] | 0.518 |
| ARSHIYTLASC [MEFV_Y741_F743L] | 0.802 |
| VFFGSYSCPFG [NKAP_Y104_R106C_YF] | 1.33 |
| LYEDRYLLGTS [ASS1_Y87] | 0.894 |
| FMCKVYSDRQP [FGFR1_Y280_P283R] | 1.35 |
| ELTTCYRKKCS [CCBE1_Y70_C75S] | 1.12 |
| GYEEAYSVSKK [PAFAH1B1_Y28_F31S] | 0.661 |
| SSQHRYSTPHT [RAF1_Y232_A237T] | 0.487 |
| VIKSSYQVAKA [CPT1B_Y534_E531K] | 0.406 |
| KDGNGYISVAE [CALM3_Y100_A103V] | 0.671 |
| GKANRYFSPNF [PTEN_Y336_D331G] | 0.811 |
| KGYCGYSYDDI [TMEM230_Y110_R108C] | 0.891 |
| SQSKGYRPKLY [SIPA1L3_Y1376_G1371S] | 0.496 |
| SVVVPYDPPEV [TP53_Y220_E221D] | 1.01 |
| FPKAHYHWLVL [APTX_Y214_R213H_YF] | 0.864 |
| TPGPNYCPGFN [USH2A_Y463_R464C_YF] | 0.662 |
| SGKSEYLLPVA [MYLK_Y611_R607G] | 0.721 |

| Sequence | phosphorylation enrichment |
| --- | --- |
| YHRQLYHKCTH [F12_Y58] | 0.653 |
| RRAKGYPINLY [ITGB2_Y125_D128N] | 0.693 |
| ILGRTHYVNHE [NEDD4_Y627_Y627H] | 0.582 |
| KMKGEYFRFLA [YWHAG_Y130_D129E_YF] | 2.04 |
| KNEVFYQCPDQ [FBXO3_Y223] | 0.941 |
| PFVFFYSFLLK [PTEN_Y178_R173P_YF] | 2.1 |
| IPPRRYFRSGV [STAMBP_Y36] | 0.714 |
| PLQSEYSSITT [ITGB4_Y1760] | 0.814 |
| PVQAAYQKVVA [HBB_Y131] | 0.37 |
| QEKKGYFEDRC [GLUL_Y336_R341C] | 1 |
| GGEAIYAAPFA [Abl_opt_1995] | 0.747 |
| LNCDRYSAGLL [PDE6A_Y275_V277A] | 0.87 |
| EEQKKYYNATK [SCN5A_Y1494_M1498T] | 0.476 |
| PEFINYHQHNS [BTK_Y361_L358F] | 0.933 |
| PLSGEYFTLQI [TP53_Y327_D324S] | 6.87 |
| HSGVSYFINLC [IGF2R_Y2024_N2020S_YF] | 1.34 |

What follows are sequences tested against MERTK (UniProt Q12866) in the same assay as above.
Sequence of MERTK (Q12866 whole entry, looked up): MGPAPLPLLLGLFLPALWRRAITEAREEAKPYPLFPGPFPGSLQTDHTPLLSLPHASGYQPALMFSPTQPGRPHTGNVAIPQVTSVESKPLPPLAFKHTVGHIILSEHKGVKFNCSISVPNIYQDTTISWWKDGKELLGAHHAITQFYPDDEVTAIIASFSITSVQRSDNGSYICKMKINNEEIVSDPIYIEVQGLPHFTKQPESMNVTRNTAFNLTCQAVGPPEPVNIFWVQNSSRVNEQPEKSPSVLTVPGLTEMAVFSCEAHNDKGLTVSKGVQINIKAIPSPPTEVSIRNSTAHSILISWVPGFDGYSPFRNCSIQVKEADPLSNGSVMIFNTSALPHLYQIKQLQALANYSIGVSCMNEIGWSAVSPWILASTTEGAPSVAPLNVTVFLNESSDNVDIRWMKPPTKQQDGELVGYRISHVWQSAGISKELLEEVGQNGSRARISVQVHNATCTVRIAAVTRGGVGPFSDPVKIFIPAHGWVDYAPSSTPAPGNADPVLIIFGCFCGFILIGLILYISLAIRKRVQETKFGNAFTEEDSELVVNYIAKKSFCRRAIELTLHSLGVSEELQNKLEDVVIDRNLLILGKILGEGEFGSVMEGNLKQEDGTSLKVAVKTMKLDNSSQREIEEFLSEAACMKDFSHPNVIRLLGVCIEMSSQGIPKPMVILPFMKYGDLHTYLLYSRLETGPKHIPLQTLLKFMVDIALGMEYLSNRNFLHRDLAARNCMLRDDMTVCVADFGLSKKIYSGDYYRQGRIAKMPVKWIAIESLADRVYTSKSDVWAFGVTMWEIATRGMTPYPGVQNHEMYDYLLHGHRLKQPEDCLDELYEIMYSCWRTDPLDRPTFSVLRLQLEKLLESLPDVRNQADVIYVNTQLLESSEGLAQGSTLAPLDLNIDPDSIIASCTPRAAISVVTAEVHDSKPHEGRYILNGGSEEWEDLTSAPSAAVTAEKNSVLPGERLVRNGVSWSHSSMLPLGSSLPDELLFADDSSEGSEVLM

| Sequence | phosphorylation enrichment |
| --- | --- |
| MEKEKYVSFIS [JMJD1C_Y596_YF] | 0.454 |
| ARSHIYTLASC [MEFV_Y741_F743L] | 1.17 |
| VFFGSYSCPFG [NKAP_Y104_R106C_YF] | 0.836 |
| LYEDRYLLGTS [ASS1_Y87] | 0.786 |
| FMCKVYSDRQP [FGFR1_Y280_P283R] | 0.463 |
| ELTTCYRKKCS [CCBE1_Y70_C75S] | 0.467 |
| GYEEAYSVSKK [PAFAH1B1_Y28_F31S] | 0.367 |
| SSQHRYSTPHT [RAF1_Y232_A237T] | 0.405 |
| VIKSSYQVAKA [CPT1B_Y534_E531K] | 0.371 |
| KDGNGYISVAE [CALM3_Y100_A103V] | 0.418 |
| GKANRYFSPNF [PTEN_Y336_D331G] | 0.46 |
| KGYCGYSYDDI [TMEM230_Y110_R108C] | 0.607 |
| SQSKGYRPKLY [SIPA1L3_Y1376_G1371S] | 0.51 |
| SVVVPYDPPEV [TP53_Y220_E221D] | 0.373 |
| FPKAHYHWLVL [APTX_Y214_R213H_YF] | 0.619 |
| TPGPNYCPGFN [USH2A_Y463_R464C_YF] | 0.507 |
| SGKSEYLLPVA [MYLK_Y611_R607G] | 0.397 |

| Sequence | phosphorylation enrichment |
| --- | --- |
| YHRQLYHKCTH [F12_Y58] | 0.571 |
| RRAKGYPINLY [ITGB2_Y125_D128N] | 0.623 |
| ILGRTHYVNHE [NEDD4_Y627_Y627H] | 0.398 |
| KMKGEYFRFLA [YWHAG_Y130_D129E_YF] | 0.598 |
| KNEVFYQCPDQ [FBXO3_Y223] | 3.49 |
| PFVFFYSFLLK [PTEN_Y178_R173P_YF] | 0.931 |
| IPPRRYFRSGV [STAMBP_Y36] | 0.608 |
| PLQSEYSSITT [ITGB4_Y1760] | 1.77 |
| PVQAAYQKVVA [HBB_Y131] | 0.716 |
| QEKKGYFEDRC [GLUL_Y336_R341C] | 0.799 |
| GGEAIYAAPFA [Abl_opt_1995] | 13.5 |
| LNCDRYSAGLL [PDE6A_Y275_V277A] | 0.378 |
| EEQKKYYNATK [SCN5A_Y1494_M1498T] | 0.411 |
| PEFINYHQHNS [BTK_Y361_L358F] | 0.507 |
| PLSGEYFTLQI [TP53_Y327_D324S] | 0.763 |
| HSGVSYFINLC [IGF2R_Y2024_N2020S_YF] | 0.417 |

These sequences were tested on c-Abl (mouse) in the same assay as above.

| Sequence | phosphorylation enrichment |
| --- | --- |
| MEKEKYVSFIS [JMJD1C_Y596_YF] | 0.541 |
| ARSHIYTLASC [MEFV_Y741_F743L] | 0.803 |
| VFFGSYSCPFG [NKAP_Y104_R106C_YF] | 1.15 |
| LYEDRYLLGTS [ASS1_Y87] | 0.79 |
| FMCKVYSDRQP [FGFR1_Y280_P283R] | 0.879 |
| ELTTCYRKKCS [CCBE1_Y70_C75S] | 0.64 |
| GYEEAYSVSKK [PAFAH1B1_Y28_F31S] | 0.536 |
| SSQHRYSTPHT [RAF1_Y232_A237T] | 0.448 |
| VIKSSYQVAKA [CPT1B_Y534_E531K] | 0.489 |
| KDGNGYISVAE [CALM3_Y100_A103V] | 0.679 |
| GKANRYFSPNF [PTEN_Y336_D331G] | 0.779 |
| KGYCGYSYDDI [TMEM230_Y110_R108C] | 0.621 |
| SQSKGYRPKLY [SIPA1L3_Y1376_G1371S] | 0.519 |
| SVVVPYDPPEV [TP53_Y220_E221D] | 0.629 |
| FPKAHYHWLVL [APTX_Y214_R213H_YF] | 0.716 |
| TPGPNYCPGFN [USH2A_Y463_R464C_YF] | 0.643 |
| SGKSEYLLPVA [MYLK_Y611_R607G] | 1.17 |

| Sequence | phosphorylation enrichment |
| --- | --- |
| YHRQLYHKCTH [F12_Y58] | 0.641 |
| RRAKGYPINLY [ITGB2_Y125_D128N] | 0.535 |
| ILGRTHYVNHE [NEDD4_Y627_Y627H] | 0.596 |
| KMKGEYFRFLA [YWHAG_Y130_D129E_YF] | 1.4 |
| KNEVFYQCPDQ [FBXO3_Y223] | 7.94 |
| PFVFFYSFLLK [PTEN_Y178_R173P_YF] | 1.52 |
| IPPRRYFRSGV [STAMBP_Y36] | 0.717 |
| PLQSEYSSITT [ITGB4_Y1760] | 1.28 |
| PVQAAYQKVVA [HBB_Y131] | 0.716 |
| QEKKGYFEDRC [GLUL_Y336_R341C] | 0.843 |
| GGEAIYAAPFA [Abl_opt_1995] | 35.6 |
| LNCDRYSAGLL [PDE6A_Y275_V277A] | 0.673 |
| EEQKKYYNATK [SCN5A_Y1494_M1498T] | 0.407 |
| PEFINYHQHNS [BTK_Y361_L358F] | 0.491 |
| PLSGEYFTLQI [TP53_Y327_D324S] | 2.51 |
| HSGVSYFINLC [IGF2R_Y2024_N2020S_YF] | 1.21 |
